Our source for the EC50 (read off the curve) values is patent publication US20260098093A1.

This assay concerns the target recombinant human VISTA-Fc protein (R&D #7126-B7) (human) (UniProt Q9H7M9). The experiment in a line: ELISA: plate coated with human VISTA-Fc, LRIG1.HIS titrated (x axis labelled 'Antibody Concentration (log M)').

Chain of recombinant human VISTA-Fc protein (R&D #7126-B7) (human) (Q9H7M9 33-194 limits assumed): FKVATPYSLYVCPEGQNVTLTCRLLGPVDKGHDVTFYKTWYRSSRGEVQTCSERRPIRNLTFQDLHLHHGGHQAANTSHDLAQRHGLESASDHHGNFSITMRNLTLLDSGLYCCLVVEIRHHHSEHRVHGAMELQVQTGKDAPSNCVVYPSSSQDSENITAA

Consider “recombinant human LRIG1.HIS (from UniProt Q96JA1 35-794) (receptor)”, for which the EC50 (read off the curve) (commonly the concentration giving half of the maximal effect) is 9 nM.
